Measurements reported in doi:10.1101/2025.05.23.654710.

Tests used:
Assay in all cases: EMSA
[1] = target: T1, Msn2 WT (Saccharomyces cerevisiae, UniProt P33748)
T1 sequence: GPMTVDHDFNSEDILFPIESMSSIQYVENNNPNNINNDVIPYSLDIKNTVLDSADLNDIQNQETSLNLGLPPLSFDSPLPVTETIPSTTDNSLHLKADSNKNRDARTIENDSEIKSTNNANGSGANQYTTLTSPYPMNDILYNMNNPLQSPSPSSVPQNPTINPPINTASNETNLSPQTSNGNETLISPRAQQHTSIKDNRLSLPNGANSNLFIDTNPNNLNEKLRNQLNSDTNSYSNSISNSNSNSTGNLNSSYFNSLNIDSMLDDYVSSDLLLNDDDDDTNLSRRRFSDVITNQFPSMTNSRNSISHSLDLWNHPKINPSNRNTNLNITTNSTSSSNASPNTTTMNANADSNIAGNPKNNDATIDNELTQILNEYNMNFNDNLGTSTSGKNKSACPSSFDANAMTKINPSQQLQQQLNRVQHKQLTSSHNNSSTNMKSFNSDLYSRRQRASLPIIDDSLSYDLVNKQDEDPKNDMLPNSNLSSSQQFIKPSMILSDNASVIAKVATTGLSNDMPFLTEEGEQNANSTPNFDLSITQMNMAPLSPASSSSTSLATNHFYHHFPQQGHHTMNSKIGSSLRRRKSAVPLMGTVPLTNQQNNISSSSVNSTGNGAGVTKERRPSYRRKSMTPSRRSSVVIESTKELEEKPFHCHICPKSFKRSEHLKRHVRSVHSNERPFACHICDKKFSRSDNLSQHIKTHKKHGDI

[2] = target: T2, Msn2 IDR (Saccharomyces cerevisiae, UniProt P33748)
T2 sequence: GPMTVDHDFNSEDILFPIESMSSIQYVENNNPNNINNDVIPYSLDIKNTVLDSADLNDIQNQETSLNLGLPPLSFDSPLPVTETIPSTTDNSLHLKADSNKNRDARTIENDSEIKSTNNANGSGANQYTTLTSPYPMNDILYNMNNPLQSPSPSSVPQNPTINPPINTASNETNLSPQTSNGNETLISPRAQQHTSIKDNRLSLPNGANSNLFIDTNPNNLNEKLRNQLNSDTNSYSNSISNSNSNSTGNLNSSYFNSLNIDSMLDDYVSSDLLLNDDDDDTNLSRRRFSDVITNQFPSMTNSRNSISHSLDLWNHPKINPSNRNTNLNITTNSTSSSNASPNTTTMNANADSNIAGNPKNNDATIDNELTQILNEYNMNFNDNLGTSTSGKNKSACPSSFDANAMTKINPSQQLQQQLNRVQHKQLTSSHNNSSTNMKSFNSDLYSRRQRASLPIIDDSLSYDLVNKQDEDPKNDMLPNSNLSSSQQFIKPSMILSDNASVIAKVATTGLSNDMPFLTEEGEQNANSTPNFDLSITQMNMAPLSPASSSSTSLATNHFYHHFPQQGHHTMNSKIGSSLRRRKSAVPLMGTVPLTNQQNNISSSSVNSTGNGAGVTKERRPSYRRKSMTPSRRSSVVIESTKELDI

[3] = target: T3, Msn2 DBD (Saccharomyces cerevisiae, UniProt P33748)
T3 sequence: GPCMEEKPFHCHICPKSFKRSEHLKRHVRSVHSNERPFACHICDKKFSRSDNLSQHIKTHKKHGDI

Measured: binding result

B1: 51 bp DNA with motif (dsDNA)
DNA 1: CGAAATTATATGGATGAGTAGGTGGGGAAGGAAGTATGTGTAGGTGGCAGG
DNA 2: CCTGCCACCTACACATACTTCCTTCCCCACCTACTCATCCATATAATTTCG
binds: all assays above
